According to paper PMC9378516 (Journal of molecular biology, 2022):

Molecular target: the molecule itself
Experiment: AUC

B1: TRF2 (hTERF2), full-length construct, residues 5-542 (natural protein, human, UniProt Q15554-3 5-542, looked up)
chain: AGTAGPASGPGVVRDPAASQPRKRPGREGGEGARRSDTMAGGGGSSDGSGRAAGRRASRSSGRARRGRHEPGLGGPAERGAGEARLEEAVNRWVLKFYFHEALRAFRGSRYGDFRQIRDIMQALLVRPLGKEHTVSRLLRVMQCLSRIEEGENLDCSFDMEAELTPLESAINVLEMIKTEFTLTEAVVESSRKLVKEAAVIICIKNKEFEKASKILKKHMSKDPTTQKLRNDLLNIIREKNLAHPVIQNFSYETFQQKMLRFLESHLDDAEPYLLTMAKKALKSESAASSTGKEDKQPAPGPVEKPPREPARQLRNPPTTIGMMTLKAAFKTLSGAQDSEAAFAKLDQKDLVLPTQALPASPALKNKRPRKDENESSAPADGEGGSELQPKNKRMTISRLVLEEDSQSTEPSAGLNSSQEAASAPPSKPTVLNQPLPGEKNPKVPKGKWNSSNGVEEKETWVEEDELFQVQAAPDEDSTTNITKKQKWTVEESEWVKAGVQKYGEGNWAAISKNYPFVNRTAVMIKDRWRTMKRLGMN
  stoichiometry N: 2
